Where a chain is given by its changes, count along the chain named. Names may count otherwise. Where two headings read alike, the source gives them in different places.
B1: Control IV: monoclonal anti-CD20 antibody 3B9-10 (antibody, V domains shown)
VH: EVQLVESGGGLVQPGRSLRLSCVASGFTFNDYAMHWVRQAPGKGLEWVSVISWNSDSIGYADSVKGRFTISRDNAKNSLYLQMHSLRAEDTALYYCAKDNHYGSGSYYYYQYGMDVWGQGTTVTVSS
VL: EIVMTQSPATLSVSPGERATLSCRASQSVSSNLAWYQQKPGQAPRLLIYGTSTRATGIPARFSGSGSGTEFTLTISSLQSEDFAVYYCQQYNNWPLTFGGGTKVEIK
notes: also called Control IV (anti-CD20)
B2: H2M2776N (antibody, V domains shown)
VH: QVQLVESGGGVVQPGRSLRLSCAASGFTFRSFGMHWVRQAPGRGLEWVAMIYFDGKNKYYADSVRGRFTISRDNSKNTLYLEMSSLRAEDTAVYFCARGPGYNWLDPWGQGTLVTVSS
VL: B1 VL with A19V, T20I, V29I, S31R, T51A, S52T, I58V, Y86F, W94R, K103E
notes: mouse IgG2 Fc, human variable regions
B3: BS3/20-003 (bispecific antibody, V domains shown)
VH 1: B1 VH
VH 2: EVQLVESGGGLVQPGRSLRLSCAASGFTFDDYTMHWVRQAPGKGLEWVSGISWNSGSIGYADSVKGRFTISRDNAKKSLYLQMNSLRAEDTALYYCAKDNSGYGHYYYGMDVWGQGTTVTVAS
VL: B1 VL with T51A, Q90H, N92I
B4: BS3/20-001 (bispecific antibody, V domains shown)
VH 1: B1 VH
VH 2: B3 VH 2
VL: AEIVMTQSPATLSVSPGERATLSCRASQSVSSNLAWYQQKPGQAPRLLIYGASTRATGIPARFSGSGSGTEFTLTISSLQSEDFAVYYCQHYINWPLTFGGGTKVEIK
notes: also called CD3×CD20 bispecific antibody
B5: H2M2709N (antibody, mouse IgG2, V domains shown)
VH: B2 VH
VL: B1 VL with A19V, V29I, S31R, T51A, I58V, Y86F, Y87H, W94R, K103E
notes: mouse IgG2 Fc (H2M), human variable regions
B6: BS3/20-002 (bispecific antibody, V domains shown)
VH 1: B1 VH
VH 2: B3 VH 2 with R16G, S25T, Y32F, A61V, K77N, H105Y, A122S
VL: B1 VL with Q27H, S31R, L33S, T51A, V85I
B7: BS3/20-004 (bispecific antibody, V domains shown)
VH 1: B1 VH
VH 2: B2 VH with F32Y, G33A, R43K, I51V, F53Y, K56N, K58Q, E82Q, S84N, E89D
VL: B1 VL with S31R, T51A, E70D, E105V
B8: H2M2704N (antibody, mouse IgG2, V domains shown)
VH: B2 VH with A23G, F32Y, A40T, F53Y, K56N, I70V, E82Q, V93L
VL: B1 VL with V29I, S31R, T51A, W94R, K103E
notes: as for B5
B9: H2M2776N (antibody, mouse IgG2, V domains shown)
VH: B2 VH
VL: B1 VL with A19V, T20I, V29I, S31R, T51A, S52T, I58V, Y86F, W94R, K103E
notes: as for B5

Experiments:
[1] = target: T1, human CD20 expressed on Raji cells (CD3-, CD20+ human B-cell line) (human, UniProt P11836 1-297); assay: cell-based or functional assay
T1 sequence: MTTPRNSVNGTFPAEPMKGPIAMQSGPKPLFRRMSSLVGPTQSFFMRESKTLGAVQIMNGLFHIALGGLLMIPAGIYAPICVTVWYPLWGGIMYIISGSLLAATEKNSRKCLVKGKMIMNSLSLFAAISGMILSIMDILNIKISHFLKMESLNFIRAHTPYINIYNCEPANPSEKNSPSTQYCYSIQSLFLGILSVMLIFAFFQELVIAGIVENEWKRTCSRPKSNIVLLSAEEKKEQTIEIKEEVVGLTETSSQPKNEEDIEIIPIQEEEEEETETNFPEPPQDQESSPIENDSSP

[2] = target: T2, cynomolgus monkey CD3 on monkey T cells (CD2+CD4+ cells of cynomolgus PBMCs) (cynomolgus monkey, UniProt Q95LI5 22-198); assay: FACS on cynomolgus PBMCs, CD2+CD4+ T cells
T2 construct: whole, on cells; also called mkT cells; monkey PBMCs
Method: (§1) CD20×CD3 bispecific antibodies and Control constructs, as set forth in Example 1, were tested via FACS for their ability to bind to Jurkat (CD3+, CD20− human T-cell line), Raji (CD3−, CD20+ Human B-cell line), or cynomolgus PBMCs (“mkT cells”).
(§2) FACS data was acquired using the following protocol: Cells at 2×10⁵ per well were incubated with serially diluted antibodies for 30 min on ice. Post incubation, cells were washed and appropriate secondary (Jurkat, RAJI cells) or cocktail of secondary antibodies (for cyno PBMC) was added and incubated for an additional 30 minutes. After incubation, cells were washed, re-suspended in cold PBS containing 1% BSA and analyzed by flow cytometry on a BD FACS Canto II. Jurkat and Raji cells were gated by side and forward scatters, while cynomolgus T cells were also gated in a CD2+CD4+ population. The EC₅₀s for cell binding titration were determined using Prism software with values calculated using a 4-parameter non-linear regression analysis.

[3] = target: T3, human CD3 expressed on cells (Jurkat, a CD3+ human T-cell line; human T cells) (human, UniProt P07766 23-126; P04234 22-100); assay: FACS on Jurkat cells
T3 construct: also called FACS JURKAT
T3 chain 1: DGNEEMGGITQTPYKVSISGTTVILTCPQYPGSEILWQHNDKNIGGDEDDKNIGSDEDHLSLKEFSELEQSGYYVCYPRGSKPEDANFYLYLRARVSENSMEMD
T3 chain 2: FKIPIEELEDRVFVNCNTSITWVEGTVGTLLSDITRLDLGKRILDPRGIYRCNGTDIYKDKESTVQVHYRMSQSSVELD
Method: as §1, §2

[4] = target: T4, Soluble heterodimeric CD3 protein (hCD3-epsilon/hCD3-delta) with either a human Fc tag (hFcΔAdp/hFc) or a … (human, UniProt P07766 23-126; P04234 22-100); assay: SPR Biacore 25C antibody-capture
T4 construct: Soluble construct; not shown: Fc tag: human (hFcΔAdp/hFc)
T4 chain 1: T3 chain 1
T4 chain 2: T3 chain 2
Method: (§3) Measurements were conducted on a T200 Biacore instrument.
Heterodimeric CD3 protein was purified using the method described in Davis et al. (US2010/0331527).
(§4) Kinetic association (kₐ) and dissociation (kd) rate constants were determined by processing and fitting the data to a 1:1 binding model using Scrubber 2.0 curve fitting software. Binding dissociation equilibrium constants (KD) and dissociative half-lives (t_{1/2}) were calculated from the kinetic rate constants as: KD (M)=kd/kₐ; and t_{1/2} (min) (ln 2/(60*kd). NT=not tested; NB=no binding observed.

[5] = target: T4, Soluble heterodimeric CD3 protein …; assay: SPR Biacore 25C antigen-capture
Method: as §3
In the antigen-capture format, heterodimeric CD3 protein was captured using a rabbit anti-mouse Fc or mouse anti-human Fc and the respective antibodies were injected over the captured antigen.
as §4

[6] = target: T1, human CD20 expressed on Raji cells …; assay: FACS on Raji cells
Method: as §1, §2

[7] = target: T1, human CD20 expressed on Raji cells …; assay: cell-based or functional assay; remark: listed apart in the source
[8] = target: T3, human CD3 expressed on cells (Jurkat, a …); assay: cell-based or functional assay
[9] = target: T1, human CD20 expressed on Raji cells …; assay: cell-based or functional assay; remark: listed apart in the source
[10] = target: T3, human CD3 expressed on cells (Jurkat, a …); assay: cell-based or functional assay
[11] = target: T3, human CD3 expressed on cells (Jurkat, a …); assay: FACS on Jurkat cells
Method: Binding was assessed using Jurkat cells (a CD3+ human T-cell line), while proliferation of Peripheral Blood Mononuclear Cells (PBMC) was assessed using ATP catalyzed quantification (CellTiter Glo®).
FACS data was acquired using the following protocol: Cells at 2×10⁵ per well were incubated with serially diluted antibodies for 30 min on ice. Post incubation, cells were washed and secondary antibody was added and incubated for an additional 30 minutes. After incubation, cells were washed, re-suspended in cold PBS containing 1% BSA and analyzed by flow cytometry with viable Jurkat cells gated by side and forward scatters. The EC₅₀s for cell binding titration were determined using Prism software with values calculated using a 4-parameter non-linear regression analysis.

T2 sequence (Q95LI5 22-198): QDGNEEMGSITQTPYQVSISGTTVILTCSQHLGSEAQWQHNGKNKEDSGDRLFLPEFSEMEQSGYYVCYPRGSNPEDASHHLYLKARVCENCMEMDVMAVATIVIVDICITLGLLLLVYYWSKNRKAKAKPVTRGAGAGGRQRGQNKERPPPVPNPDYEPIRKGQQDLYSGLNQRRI

Row | Binder | EC50 [6] | Raji Cytotoxicity Human T-cells [M] (EC50) [7] | U937 Cytotoxicity Human T-cells [M] (EC50) [8] | EC50 [3] | U937 Cytotoxicity Human T-cells [M] (EC50) [10] | EC50 [11] | further results
1 | B1 | – | – | – | – | – | – | CDC EC50, Raji [1]: 247 pM; CDC EC50, Raji SCID1 [1]: 51900 pM; CDC EC50, Raji SCID2 [1]: 229 pM; CDC EC50, Raji SCID3 [1]: 5710 pM; CDC EC50, Raji SCID4 [1]: 1140 pM; binding result [2]: no binding; binding result [3]: no binding
2 | B2 | – | – | – | – | – | – | Kd [4]: 10200 pM; koff [4]: 0.000639 s⁻¹; kon [4]: 62900 M⁻¹ s⁻¹; Kd [5]: 140 pM; T½ [5]: 52 min; koff [5]: 0.000222 s⁻¹; kon [5]: 1.58e+06 M⁻¹ s⁻¹
3 | B3 | 92400 pM | 7.38e-11 M | 8.1e-11 M | 56700 pM | – | – | Raji Cytotoxicity Monkey T-cells [M] (EC50) [7]: 4.36e-14 M; CD25 upregulation on CD8+ T-cells, PBMC + Raji, EC50 [9]: 0.338 pM; CD25 upregulation on CD8+ T-cells, PBMC, EC50 [9]: 365 pM
4 | B4 | 59900 pM | 5.63e-11 M | 8.86e-11 M | 38500 pM | – | – | Raji Cytotoxicity Monkey T-cells [M] (EC50) [7]: 1.27e-12 M; CD25 upregulation on CD8+ T-cells, PBMC + Raji, EC50 [9]: 1.35 pM; CD25 upregulation on CD8+ T-cells, PBMC, EC50 [9]: 112 pM
5 | B5 | – | – | – | – | 3.47e-12 M | 711 pM | –
6 | B6 | 11500 pM | 7.71e-11 M | 8.24e-10 M | 56200 pM | – | – | –
7 | B7 | 10200 pM | 1.29e-11 M | 6.07e-11 M | 48900 pM | – | – | –
8 | B8 | – | – | – | – | 2.49e-12 M | 845 pM | –
9 | B9 | – | – | – | – | 4.06e-12 M | 491 pM | –
